The text below walks through data of patent US20120178682A1, “GB1 Peptidic Compounds and Methods for Making and Using the Same” (priority 2010, published 2012).

Changes are numbered by the printed parent chain. Names may count otherwise.

The test addresses D-VEGF. Put plainly: SPR affinity measurements of GB1 peptidic compounds on immobilized D-VEGF. The following applies: for Kd / Koff / Kon: target D-VEGF; for effect of point mutation on affinity: notes to Table 5, relative to E01. The class given is binding. How it is done:
VEGF binding compounds were expressed. Binding affinities were measured using the […] SPR system. SPR analysis was performed on a ProteOn XPR36 Protein Interaction Array System (BioRad). Chemically synthesized L-VEGF, D-VEGF and VEGF165 (Peprotech) were immobilized in 50 mM Sodium Acetate (pH 5.5) to a non-dilute EDAC/sulfo-NHS activated GLC surface on separate channels using a flow rate of […] for 5 minutes in the vertical direction. Immobilization levels were monitored to ensure immobilization of approximately 500 response units of each protein. The domains were then stabilized with PBS for 30 seconds and 0.85% H3PO4 for 18 seconds each at […]. GB1 variants were diluted in PBS plus 0.05% Tween 20 at a starting concentration of 200 nM. The binders were further diluted with PBST 2-fold in series to produce 5 concentrations of variants. A PBST blank was also included. GB1 variant injection parameters were: […], 60 seconds contact time, and 600 seconds dissociation time, in the horizontal direction. VEGF proteins were regenerated with an injection of 0.85% H3PO4 at a flow rate of […] followed by a PBST wash of 30 seconds at […] flow rate.

[1] abbreviates: Table 1, E01 point mutants expressed in E. coli.
The mark [2] stands for this setting: Table 2, GB1-E01 double mutants.

B1: E01-V31A: E01 point mutant V31A (protein)
chain: MKIEEHHHHHHHHHHGGSTYKLILNGKTLKGETTTEAVDVYDAFDVFFAYAASNFSDFDDWTYDDATKTFTVTEGGSDK
The term Kd denotes the concentration at which binding is half-saturated. Higher therefore signals weaker binding. Where the note is “Table 1”, B1 had a Kd of 7.8 nM and a Koff of 0.00194 s⁻¹. The Kon under setting [1] came out at 250000 M⁻¹ s⁻¹.

B2: E01-D39F/A34S: E01 double mutant D39F/A34S (protein)
chain: B1 chain with A49V, A52S, D57F
Under setting [2], B2 registered a Kd of 4.49 nM, a Koff of 0.00174 s⁻¹ and a Kon of 387000 M⁻¹ s⁻¹.

B3: E01-S35E: E01 point mutant S35E (protein)
chain: B1 chain with A49V, S53E
For the setting “Table 1”, B3 returned a Kd of 7.47 nM and a Koff of 0.00304 s⁻¹. Under setting [1], the Kon turned out to be 407000 M⁻¹ s⁻¹.

B4: E01-D39F/S38G: E01 double mutant D39F/S38G (protein)
chain: B1 chain with A49V, S56G, D57F
Under setting [2], B4 returned a Kd of 2.83 nM, a Koff of 0.00131 s⁻¹ and a Kon of 463000 M⁻¹ s⁻¹.

B5: E01-A34S: E01 point mutant A34S (protein)
chain: B1 chain with A49V, A52S
In the case of B5, for the setting “Table 1”, the Kd came to 7.8 nM and the Koff was determined as 0.00278 s⁻¹. The Kon under setting [1] worked out at 356000 M⁻¹ s⁻¹.

B6: E01-S38G: E01 point mutant S38G (protein)
chain: B1 chain with A49V, S56G
For the setting “Table 1”, B6 gave a Kd of 9 nM and a Koff of 0.00387 s⁻¹. For the same molecule, the Kon under setting [1] worked out at 428000 M⁻¹ s⁻¹.

B7: E01-D27E: E01 point mutant D27E (protein)
chain: B1 chain with D45E, A49V
For B7, for the setting “Table 1”, the dissociation constant Kd stood at 9.6 nM and the Koff turned out to be 0.00333 s⁻¹. The molecule also had a Kon under setting [1] of 347000 M⁻¹ s⁻¹.

B8: E01-S38K: E01 point mutant S38K (protein)
chain: B1 chain with A49V, S56K
Regarding B8, where the note is “Table 1”, the Kd turned out to be 13.7 nM and the Koff amounted to 0.0028 s⁻¹. This molecule returned a Kon under setting [1] of 204000 M⁻¹ s⁻¹.

B9: E01-S35G: E01 point mutant S35G (protein)
chain: B1 chain with A49V, S53G
For B9, where the note is “Table 1”, binding was characterised by a dissociation constant (Kd) of 8.79 nM and the Koff turned out to be 0.00348 s⁻¹. This molecule registered a Kon under setting [1] of 396000 M⁻¹ s⁻¹.

B10: E01-D39F/S35R: E01 double mutant D39F/S35R (protein)
chain: B1 chain with A49V, S53R, D57F
B10: under setting [2], the Kd is 5.35 nM, the Koff came to 0.00183 s⁻¹ and the Kon was 341000 M⁻¹ s⁻¹.

B11: E01-D39F/D27E: E01 double mutant D39F/D27E (protein)
chain: B1 chain with D45E, A49V, D57F
Under setting [2], B11 showed a Kd of 3.1 nM, a Koff of 0.00158 s⁻¹ and a Kon of 511000 M⁻¹ s⁻¹.

B12: E01-D24G: E01 point mutant D24G (protein)
chain: B1 chain with D42G, A49V
Consider B12, for which, where the note is “Table 1”, the Kd is 14.9 nM and the Koff worked out at 0.00247 s⁻¹. Under setting [1], this molecule yielded a Kon of 166000 M⁻¹ s⁻¹.

B13: E01-D39F: E01 point mutant D39F; scaffold for double mutants (protein)
chain: B1 chain with A49V, D57F
As for B13, the “effect of point mutation on affinity” value is given as “^3 D39F point mutant increased affinity”. Where the note is “Table 1”, this molecule came in with a Kd of 4.23 nM and a Koff of 0.00213 s⁻¹. The same molecule registered a Kon under setting [1] of 504000 M⁻¹ s⁻¹. Under setting [2], this molecule had a Kd of 3.48 nM, a Koff of 0.00132 s⁻¹ and a Kon of 380000 M⁻¹ s⁻¹.

B14: E01-D39F/V22L: E01 double mutant D39F/V22L (protein)
chain: B1 chain with V40L, A49V, D57F
Under setting [2], B14 returned a Kd of 1.14 nM, a Koff of 0.00082 s⁻¹ and a Kon of 719000 M⁻¹ s⁻¹.

B15: E01-F40I: E01 point mutant F40I (protein)
chain: B1 chain with A49V, F58I
Regarding B15, where the note is “Table 1”, the dissociation constant Kd was found to be 11.1 nM and the Koff turned out to be 0.00441 s⁻¹. The molecule further showed a Kon under setting [1] of 398000 M⁻¹ s⁻¹.

B16: E01-D39F/S35G: E01 double mutant D39F/S35G (protein)
chain: B1 chain with A49V, S53G, D57F
Take B16: under setting [2], binding was characterised by a dissociation constant (Kd) of 5.4 nM, the Koff was determined as 0.00193 s⁻¹ and the Kon was determined as 358000 M⁻¹ s⁻¹.

B17: E01-V22L: E01 point mutant V22L, His-tagged, expressed in E. coli (protein)
chain: B1 chain with V40L, A49V
Consider B17, for which the “effect of point mutation on affinity” value is “^2 V22L point mutant increased affinity;”. For the setting “Table 1”, this molecule had a Kd of 5.8 nM and a Koff of 0.00239 s⁻¹. Besides, under setting [1], the Kon amounted to 411000 M⁻¹ s⁻¹.

B18: E01-D39F/V31A: E01 double mutant D39F/V31A (protein)
chain: B1 chain with D57F
Under setting [2], B18 came in with a Kd of 2.99 nM, a Koff of 0.00167 s⁻¹ and a Kon of 558000 M⁻¹ s⁻¹.

B19: E01-D39F/F40I: E01 double mutant D39F/F40I (protein)
chain: B1 chain with A49V, D57F, F58I
For B19, under setting [2], the affinity, expressed as Kd, was 2.29 nM; the Koff amounted to 0.00138 s⁻¹; the Kon turned out to be 602000 M⁻¹ s⁻¹.

B20: E01-D41V: E01 point mutant D41V (protein)
chain: B1 chain with A49V, D59V
Consider B20, for which, for the setting “Table 1”, the Kd stood at 67.5 nM and the Koff worked out at 0.0333 s⁻¹. The molecule also registered a Kon under setting [1] of 493000 M⁻¹ s⁻¹.

B21: E01-D39F/S35E: E01 double mutant D39F/S35E (protein)
chain: B1 chain with A49V, S53E, D57F
Under setting [2], B21 yielded a dissociation constant Kd of 4.52 nM, a Koff of 0.00205 s⁻¹ and a Kon of 454000 M⁻¹ s⁻¹.

B22: E01-S35R: E01 point mutant S35R (protein)
chain: B1 chain with A49V, S53R
Take B22: for the setting “Table 1”, the affinity, expressed as Kd, was 9.3 nM and the Koff was 0.00258 s⁻¹. Also, the Kon under setting [1] is 279000 M⁻¹ s⁻¹.
